# Source: patent US20260216362A1, “ANTI-BDCA2 ANTIBODY-DRUG CONJUGATE AND USE THEREOF” (DUALITY BIOLOGICS (SHANGHAI) CO., LTD., priority 2022, published 2026)
# How the values were obtained:
# recombinant Human BDCA2 = target: T1, recombinant Human BDCA2 (Homo sapiens, UniProt Q8WTT0); test: Affinity assay of humanized antibodies by BIAcore (SPR); conditions: 1:1 binding model
# T1 construct: extracellular domain (Asn45-Ile213) of human BDCA2 (hBDCA2); human IgG1 Fc (fused via a linker) (N); made in house; host or cells: 293E
# T1 sequence (Q8WTT0 45-213): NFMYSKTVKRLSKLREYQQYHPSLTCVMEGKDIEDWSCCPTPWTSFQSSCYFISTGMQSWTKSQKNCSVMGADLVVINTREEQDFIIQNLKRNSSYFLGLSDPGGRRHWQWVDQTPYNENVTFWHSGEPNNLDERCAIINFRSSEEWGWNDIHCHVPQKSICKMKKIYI
# Description: The humanized antibodies of the present disclosure were assayed for affinity by the BIAcore experiment. The surface of a CM5 chip channel was activated with 50 mM NHS and 200 mM EDC (NHS and EDC from an amino coupling kit) mixed in a ratio of 1:1, and the anti-human IgG (Fc) antibody (diluted with a sodium acetate solution at pH 5.0, the concentration was 25 μg/mL) was injected for 420 s. Then 1 M ethanolamine was injected at a flow rate of 10 μL/min for 420 s to block excess active carboxyl groups on the chip. The humanized antibody was diluted to 1 μg/mL using a running buffer and injected into a detection channel flow cell at a flow rate of 10 μL/min. The sample injection was performed for 60 s for capture. The recombinant Human BDCA2 was diluted to 50 nM or 100 nM with 1× HBS-EP+ (pH 7.4), and diluted in a gradient of 1:2 to 0.39 nM. The test samples hBDCA2 at these concentration gradients were separately injected into the detection channel at a flow rate of 30 μL/min, wherein 2 samples at the concentration of 0 were used for removing background signals. The times for the antibody-antigen binding and dissociation were 180 s and 400 s, respectively. […] After subtraction of the signals from the reference channel (flow cell 1) and 0 concentration, a 1:1 binding model was selected for curve fitting, and kinetic parameters calculated.
# [1] = system: cynomolgus monkey whole blood stimulated with CpG-A; test: IFN-α after in vitro CpG-A stimulation of whole blood of dosed cynomolgus monkeys; assay type: in vivo; conditions: 10 mg/kg i.v.; CpGA-stimulated whole blood
# Description: Cytokine expression was detected by whole blood stimulation in vitro.
# The cells were cultured at 37° C. for 18 h, and the supernatant was collected. The TNF-α and IFN-α concentration levels in the supernatant were detected using an ELISA kit.
# IFN-α concentration assay was performed using a Mabtech Human IFN-α (pan specific) ELISA kit (Cat. No. 3425-1H-20). 50 μL of serially diluted cytokine standard was added to each standard well, 50 μL of test sample was added to each sample well, and 50 μL of PBS was added to each blank control well. The cells were incubated at 37° C. for 2 h. The plate was washed 3 times, the liquid in each well was removed, and 300 µL of 1× PBST buffer working solution was added to each well; and after 1 minute of residence, the liquid in each well was discarded. 100 μL of detection antibody working solution was added to each well, and the cells were incubated at 37° C. for 1 h. […] The reading at wavelength 450 nm was detected using a Molecular device spectra max plus384 instrument within 10 min after the reaction was stopped.
# Evaluation criteria in FIGS. 12-13: the average expression level changes of IFNα/TNFα were evaluated after in vitro stimulation of the whole blood with CpGA at 200 μg/mL on days 0-33 after administration. […]
substance,measurement,setting,value
"BIIB059: reference antibody specifically binding to BDCA2, sequence derived from U.S. Pat. No. 9,902,775B2; SEQ ID NO: 25 and 26 [reference compound]",ka,recombinant Human BDCA2,167000 M⁻¹ s⁻¹
same,kd,recombinant Human BDCA2,0.000179 s⁻¹
same,IFN-α expression level compared to the blank control group,[1],reduced
